Results from US20260125478A1 (VIELA BIO, published 2026).
Changes are numbered by the printed parent chain.

Assays:
[1] = target: T1, recombinant human FcγRI (ELISA coat, generated at MedImmune) (human, UniProt P12314 16-292, limits assumed); experiment: ELISA on plate-coated FcγRI (2 µg/ml), detection with goat anti-human Fc-HRP
T1 construct: also called CD64
Procedure: (§1) Plates were washed five times with 200 μl of wash buffer (PBS containing 0.1% Tween 20), blocked with blocking buffer containing 5% milk in PBS for 1 hour at room temperature, and washed five additional times with wash buffer. Three-fold serial dilutions of the test antibody or control antibody (R347-Tm) were added to wells in duplicate. Plates were incubated for 2 hours at room temperature, and washed five times with wash buffer. Binding of the antibodies to the FcγRs was detected by adding 50 μl of goat anti-human Fc-HRP (Jackson ImmunoResearch Laboratories, PA) to the wells and incubating for 1 hour at room temperature, washing 10 times, and adding 50 μl TMB substrate (Pierce Biotechnology, MA). The color reaction was stopped with 50 μl 0.2M […] and the absorbance was measured using a spectrophotometer (Molecular Devices, CA) at […].

[2] = target: T2, Human CD32A 131H extracellular domain, 6xHis_Flag tagged (human, UniProt P12318 34-217); experiment: Biacore; IgG1-TM captured on a Protein G chip, CD32A as analyte, 1:1 Langmuir fit, average of two experiments
T2 construct: Used unlabelled as the analyte in Biacore; also called Hu CD32A_131His
T2 sequence: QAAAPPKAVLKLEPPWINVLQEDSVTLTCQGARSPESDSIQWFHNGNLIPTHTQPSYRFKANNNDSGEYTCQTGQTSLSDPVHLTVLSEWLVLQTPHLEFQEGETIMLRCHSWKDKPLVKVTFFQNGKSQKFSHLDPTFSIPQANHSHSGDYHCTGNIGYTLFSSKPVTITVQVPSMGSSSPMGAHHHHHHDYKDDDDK

[3] = target: T3, Human CD32A 131R extracellular domain, 6xHis_Flag tagged (human, UniProt P12318 34-217); experiment: as above
T3 construct: also called Hu CD32A_131Arg; human CD32A_131 Arg
T3 chain: T2 sequence with H134R

[4] = target: T4, recombinant human FcγRIIIA-158F allotype (ELISA coat, generated at MedImmune) (human, UniProt P08637 17-208, limits assumed); experiment: ELISA on plate-coated FcγRIIIA-158F (2 µg/ml), detection with goat anti-human Fc-HRP
T4 construct: also called FcγRIII-158F allotype; CD16A 158F
Procedure: as §1

T4 sequence (P08637 17-208 limits assumed): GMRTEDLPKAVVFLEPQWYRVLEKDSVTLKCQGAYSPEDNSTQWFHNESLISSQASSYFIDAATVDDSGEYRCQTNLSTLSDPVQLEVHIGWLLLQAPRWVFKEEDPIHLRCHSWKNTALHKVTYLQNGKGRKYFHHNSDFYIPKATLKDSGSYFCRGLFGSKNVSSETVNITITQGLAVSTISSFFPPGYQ
T1 sequence (P12314 16-292 limits assumed): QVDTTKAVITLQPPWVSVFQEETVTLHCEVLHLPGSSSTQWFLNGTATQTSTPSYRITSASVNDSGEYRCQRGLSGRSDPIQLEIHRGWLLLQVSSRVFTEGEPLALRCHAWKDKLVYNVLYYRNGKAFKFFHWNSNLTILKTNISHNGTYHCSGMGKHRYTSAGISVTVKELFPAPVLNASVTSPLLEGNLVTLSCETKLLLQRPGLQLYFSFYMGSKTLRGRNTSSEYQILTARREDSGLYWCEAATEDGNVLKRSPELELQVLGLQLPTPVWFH

binding result [1]: no binding (tested: about 15000 ng/ml)
Kd [2]: 0.13 nM
koff [2]: 0.000337 s⁻¹
kon [2]: 2.6e+06 M⁻¹ s⁻¹
Kd [3]: 0.15 nM
koff [3]: 0.000735 s⁻¹
kon [3]: 4.98e+06 M⁻¹ s⁻¹
binding result [4]: no binding (tested: about 15000 ng/ml)
B1: 32LO0352 (MEDI9600) (antibody, human IgG1, V domains shown)
VH: QVQLVQSGAEVKKPGASVKVSCKASGYTFTNYGMNWVRQAPGQRLEWMGWLNTYTGESWYPDDFKGRVTITRDTSASTAYMELSSLRSEDTAVYYCARGDYGYDDPLDYWGQGTLVTVSS
VL: DIVMTQSPLSLPVTPGEPASISCRSSKSLLHTNQNTYLHWFLQKPGQSPQLLIYRMSVLASGVPDRFSGSGSGTDFTLKISRVEAEDVGVYYCMQHLEYPLTFGQGTKLEIK
notes: Fluorescently labelled in the neutrophil flow cytometry assay and Alexa 647 labelled for confocal microscopy; also called clone 32LO0352; CD32LO0352
